Measured values reported in US20220160891A1 (Johns Hopkins, published 2022).
Where two headings read alike, the source gives them in different places.

T1: yeast surface-displayed mouse IL-2 (residues 1-149) (mouse, UniProt P04351 21-169)
T1 construct: range 1-149; also called mIL-2; not shown: yeast display anchor encoded by the pCT302 vector
T1 sequence (looked up): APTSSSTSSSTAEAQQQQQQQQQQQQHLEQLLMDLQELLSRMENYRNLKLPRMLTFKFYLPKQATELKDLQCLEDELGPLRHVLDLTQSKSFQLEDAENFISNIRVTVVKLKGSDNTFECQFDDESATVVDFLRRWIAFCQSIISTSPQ

B1: recombinant F5111 antibody (human IgG1 lambda) (antibody, V domains shown)
VH: QLQLQESGPGLVKPSQTLSLTCTVSGGSISSGGYYWSWIRQHPGKGLEWIGYIYYSGSTYYNPSLKSRVTISVDTSKNQFSLKLSSVTAADTAVYYCARTPTVTGDWFDPWGRGTLVTVSS
VL: NFMLTQPHSVSESPGKTVTISCTRSSGSIASNYVQWYQQRPGSSPTTVIYEDNQRPSGVPDRFSGSIDSSSNSASLTISGLKTEDEADYYCQSYDSSNVVFGGGTKLTVLG
notes: also called F5111 Ab; monoclonal antibody F5111

How the values were obtained:
[1] = target: biotinylated human IL-2Ralpha extracellular domain (residues 1-214) (human) (UniProt P01589); experiment: bio-layer interferometry equilibrium titration on immobilized hIL-2Rα, response MW normalized
[2] = target: T2, yeast surface-displayed human IL-2 (residues 1-133) (human, UniProt P60568 21-153); experiment: yeast surface titration on hIL-2-displaying yeast, flow cytometry, normalized MFI
T2 construct: also called hIL-2; not shown: yeast display anchor encoded by the pCT302 vector
T2 sequence (P60568 21-153): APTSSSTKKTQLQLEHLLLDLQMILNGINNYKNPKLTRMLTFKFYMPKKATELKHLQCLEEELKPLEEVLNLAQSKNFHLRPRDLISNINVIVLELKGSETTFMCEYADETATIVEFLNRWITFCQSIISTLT
Description: (§1) Yeast surface binding studies. […] Cells were then washed and stained with a 1:200 dilution of Alexa647-conjugated streptavidin (Thermo) in PBSA for 15 minutes at 4° C. After a final wash, cells were analyzed for antibody binding using a CytoFLEX flow cytometer (Beckman Coulter). Background-subtracted and normalized binding curves were fitted to a first-order binding model and equilibrium dissociation constant (KD) values were determined using GraphPad Prism.
(§2) A rapid small-scale HEK 293F cell transfection assay was developed to optimize immunocytokine expression. […] After a 3-day incubation, secreted protein was captured from the supernatant with protein G resin, eluted with 0.1 M glycine pH 2.0, and analyzed via SDS-PAGE. […] Immunocytokine expression was scaled up in HEK 293F cells and the secreted protein was purified via protein G affinity chromatography followed by size-exclusion chromatography.

[3] = target: T3, biotinylated human IL-2 immobilized on streptavidin-coated tips (human, UniProt P60568 21-153, biotinylated (site not stated)); experiment: bio-layer interferometry equilibrium titration on immobilized hIL-2, response MW normalized
T3 construct: also called biotinylated hIL-2; immobilized hIL-2; not shown: tags and biotinylation site of the biotinylated hIL-2 construct are not described (the BAP tag is described only for hIL)
T3 sequence (P60568 21-153): as above
Description: (§3) Bio-layer interferometry binding studies. […] Less than 5 signal units (nm) of receptor was immobilized to minimize mass transfer effects. […] An irrelevant protein was included in a reference well to subtract non-specific binding. Surface regeneration for all interactions was conducted using a 15 second exposure to 0.1 M glycine pH 3.0. Experiments were carried out in PBSA (phosphate-buffered saline, pH 7.3 plus 0.1% bovine serum albumin (BSA, Thermo Fisher Scientific)) at 25° C. Data was visualized and processed using the Octet® Data Analysis software version 7.1 (Molecular Devices). Equilibrium titration curve fitting and KD value determination was implemented using GraphPad Prism, assuming all binding interactions to be first order.

[4] = target: T2, yeast surface-displayed human IL-2 …; experiment: yeast surface display titration of soluble antibody, flow cytometry; apparent bivalent affinity
Description: as §1, §2

[5] = target: T3, biotinylated human IL-2 immobilized on …; experiment: bio-layer interferometry equilibrium titration on immobilized hIL-2, response MW normalized; remark: listed apart in the source
Description: as §3

[6] = target: T1, yeast surface-displayed mouse IL-2 …; experiment: yeast surface titration on mIL-2-displaying yeast, flow cytometry, normalized MFI
[7] = target: T2, yeast surface-displayed human IL-2 …; experiment: yeast surface titration on hIL-2-displaying yeast, flow cytometry, normalized MFI; remark: listed apart in the source
Description: as §1

Row | Molecule | EC50 (read off the curve) [1] | Kd [2] | EC50 (read off the curve) [3] | Kd [4] | EC50 (read off the curve) [5] | binding result [6] | EC50 (read off the curve) [7]
1 | human IL-2 cytokine (residues 1-133), soluble, C-terminal hexahistidine tag (from UniProt P60568 21-153) (ligand) | 5 nM | – | – | – | – | – | –
2 | hIL-2/F5111 complex (from UniProt P60568 21-153) | 8 nM | – | – | – | – | – | –
3 | B1 | – | 0.42 nM | ~0.6 nM | 0.43 nM | ~3 nM | no binding (tested: about 1e-7 M) | ~0.08 nM
